Experiment: yeast display, Sf9 membrane polyspecificity reagent, FACS + sequencing; frameworks hold sequencing errors
Method in brief: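 A nanobody's polyreactivity label depends on the gate it was sorted from. Yeast display cells were stained with 10% biotinylated, detergent-solubilized Sf9 membrane reagent for 1 hour at 4 °C, enriched on streptavidin microbeads and sorted by FACS. The low and high (top ~1%) gates were set on anti-HA fluorescence for expression and streptavidin fluorescence for reagent binding.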

Row | Sequence | polyreactivity (PSR sort gate)
1 | QVQLVESGGGLVQAGGSLRLSCAASGSTSVVNPMGWSRPAPGTERELVAAISWSGGSTYYADSVKGRFTISRDNAKNTVYLQMNSLKPEDTAVYYCAKRRVYYGSRYNYWGQGTQVTVSS | high polyreactivity
2 | QVQLVESGGGLVQAGGSLRLSCAASGRIFYRYAMGWYRQAPGKERELVATISSGGSTNYADSVKGRFTISRDNAKNTVYLQMNSLKPEDTAVYYCARQSLRYSYVSRDYWGLGTQVTVSS | low polyreactivity
3 | QVQLVESGGGLVQAGGRLRLSCAASGSTFAIYGMGWYRQAPGKERELVAGITRGGSTNYADSVKGRFTISRDNAKNTVYLQMNSLKPEDTAVYYCNSPFGVRRFKTKGRSHYEYWGQGTQVTVSS | high polyreactivity
4 | QVQLVESGGGLVQAGGSLRLSCAASGNIFSAYAMGWYRQAPGTERELVATITSGGITYYADSVKGRFTISRDNAKNSVYLQKNSLKPEDTAVYYCNADHHGQAEYGYWGHGTQVTVSS | low polyreactivity
5 | QVQLVESGGGLVQAGGSLRLSCAASGFILYYYAMGWYRQAPGKERELVAAISSGGNTDYADSVKGRFTISRDNAKNTVYLQMNSLKPEDTAVYYCAARGYHYSYLRGDTGYYYWGQGTQVTVSS | low polyreactivity
6 | QVQLQESGGGLLQVGGSLRLSCAASGTIFIYGFLGWNRQAPGKERELVASINLGGITNYADSVKGRFTISRDNAKKTVYLQMISLKPEDTAVYYCAAYVVTGQNYGYWGQGTQVTVSS | low polyreactivity
7 | QVQLVESGGGLVQAGGSLRLSCAASGSIFNPYAMGWYRQAPGKERELVAAISYTGGRTYYADSVKGRFTISRDNAKNTVYLQMNSLKPEDTAVYYCAAGHYVYWYRYQLGRYNYWGQGTQVTVSS | high polyreactivity
8 | QVQLVESGGGLVQAGGSLRLSCAASGSIFSDYAMGWYRQAPGKERELVAAISGTGGGTYYADSVKGRFTISRDNAKNTVYLQMNSLKPEDTAVYYCAADYVFAWWGDYYWGQGTQVTVSS | high polyreactivity
9 | QVQLVESGGGLVQAGGSLRLSCAASGSIFRKNAMGWYRQAPGKERELVATISGGGSTTYADSVKGRFTISRDNAKNTVYLQMNSLKPEDTAVYYCAARSTWFQIRYGYWGQGTQVTVSS | high polyreactivity
10 | QVQLVESGGGLVQAGGSLRLSCAASGSTFPSNAMGWYRQAPGKERELVAAISRSGGSTYYADSVKGRFTISRDNAKNTVYLQMNSLKPEDTAVYFCAVQVRPNSGGTRIHRGGYDYWGQGTQVTVSS | low polyreactivity
11 | QVQLVESGGGLVQAGGSLRLSCAASGSTFVSYAMGWYRQAPGKERELVAAITWRGDSTYYADSVKGRFTISRDNAKNTVYLQMNSLKPEDTAVYYCAADGRSWRYYSPYYYWGQGTQVTVSS | low polyreactivity
12 | QVQLVESGGGLVQAGGSLRLSCAASGFIFLPYAMGWYRQAPGKERELVAAITRGGRTYYADSVKGRFTISRDNAKNTVYLKMNSLKPEDTAVYYCAATTYLVWGYNYWGQGTQVTVSS | low polyreactivity
13 | QVQLVESGGGLVQAGGSLRLSCAASGIIFSSYAMGWYRQAPGKERELVAAISLSGGSTYYADSVKGRFTISRDNAKNTVYLQMNSLKPEDTAVFYCNTVRQRARFTKVDYWGQGTQVTVSS | high polyreactivity
14 | QVQLVESGAGIVQAGGSLRLSCAASGRTCTWYAMGWYTQAPGKERELVAAISKSGGSTYYADSVKGRFTISRDTAKNTVFLQMNSLKPEDTAVYYCNADFYGYFLGYGYWGQGTQVTVSS | low polyreactivity
15 | QVQLVESGGGLVQAGGSLRLSCAASGSTFTRYAMGWYRQAPGKERELVAAISSSAGRTYYADSVKGRFTISRDNAKNTVYLQMNSLKPEDTAVYYCAATRVYAGAQYDYWGQGTQVTVSS | high polyreactivity
16 | QVQIVESGGGLVQAGGSLRLRCAASGRIFSWNAMGWSRQAPGKERELVPAITWRGTSTYYADSVKGRFTISRDIAKNTVYLQMISLKPEDTAVYFCNVGLYRDWYTFGLEYDYWGQGTQVSVSS | low polyreactivity

Row | Sequence | polyreactivity (PSR sort gate)
17 | QVQLVESGGGLVQAGGSLRLSCAASGRIFYGYTMGWYRQAPGKERELVASITIRGSRTYYADSVKGRFTISRDNAKNTVYLQMNSLKPEDTAVYSCAADFVPARTVHRYDYWGQGTQVTVSS | low polyreactivity
18 | QVQLVESGGGLVLAGGSLRLSCAASGSIFGPYAMGWYRQAPGKERELVAAIRSGGSTNYADSVKGRFTISRDNAKNTVYLQMNSLKPEDNAVYYCAAEYWGYPYDYWGQGTQVTVSS | low polyreactivity
19 | QVQLVESGGGLVQAGGSLRLSCAASGSIFPSYAMGWYRQAPGKERELVATISGSGTRTYYADSVKGRFTISRDNAKNTVYLQMNILKPEDTAVYYCAADPWLGTGRYDYWGQGTQVTVSS | low polyreactivity
20 | QVQLVESGGGLVQAGGSLRLSCAASGSTFNGNVMGWYRQAPGKERDFVAGISKSGGTTYYADSVKGRFTISRDNAKNTVYLQMNSLKPEDTAVYYCAARGRVRYYPQYYYWGQGTQVTVSS | high polyreactivity
21 | QVQLVESGGGLVQAGGSLRLSCAASGFIFINYAMGWNRPAPGKERELVAAISSRGGSTYYADSVKGRFTISRDNAKNTVYLQMNSLKPEDTAVYYCNADQSFRIVTFDYWGQGTQVTVSS | high polyreactivity
22 | QVQLVESGGGLVQAGGSLRLSCAASGFTSAPNAMGWYRQAPGKERELVAAITSSTGRTRYADSVKGRFTISRDNAKNTVYLQMNSLKPEDTAVYYCAVKLLFRGTYEYWGQGTQVTVSS | low polyreactivity
23 | QVQLVESGGGLVQAGGSLRLSCAASGRIFFYYAMGWYRQAPGKERELVATITASGDSTYYADSVKGRFTISRDNAKDTVYLQMNSLKPEDTAVYYCAADDGDYYEVDYWGQGTQVTVSS | low polyreactivity
24 | QVQLVDSGGGLVQAGGSLRLSCAASGFIFTDYAMGLYRQAPGQEREFVAAIDWSGGNTYYADSVTGRFTISRDNAKNTVYLQMNSLKPEDTAVFYCAASGSAREYVYWGQGTQVTVSS | low polyreactivity
25 | QVQLVESGGGLVQAGGSLRLSCAASGSTFYRYAMGWYRQAPGKERELVAAITARGGSTYYADSVKGRFTISRDNAKNTVYLQMNSLKPEDTAVYYCAADWLSTKNDYWGQGTQVTESS | low polyreactivity
26 | QVQLVESGGGLVHAGGSLRLICAASGSIFQSYDMGWYRQAPGKERELVAAISWSGSTTYYADSVKGRFTISRDNAKNTVYLQMNSLKPEDTAVYYCAVDSNPPDWWAVIYGYWGQGTQVTVSS | low polyreactivity
27 | QVQLVESGGGLVQAGGSLRLICAASGRIFAHYARGWYRQAPGKERELVAAISWRGGRTYYADSVKGRFTISRDNAKNTVYLQMNSLKPEDTAVYYCNAVGYSQGYDYWGQGTQVTVSS | high polyreactivity
28 | QVQLVESGGGLVQAGGSLRLSCAASGYIFHLYAMGWYRQAPGKERELVAAISSGGRTYYADSVKGRFTISRDNAKNTVYLQMNSLKPEDTAVYYCAVRSYVNTAVGYYYWGQGTQVTVSS | high polyreactivity
29 | QVQLVESGGGLVQAGGSLRLSCAASGITFYFYAMGWYRQAPGKERELVAAITSTGTSTYYADSVKGRFTISRDNAKNTVYLQMNSLKPEDSAVYYCAKDQHYPHYQPYWSRYDYWGQGTQVTVSS | low polyreactivity
30 | QVQLVESGGGLVQAGGSLRLSCAASGFTFYRYAMGWYRQAPGKERELVAAITWSGGATYYADSVKGRFTISRDNAKNTVYLQMNSLKPEDTAVYYCAADIYDGGFDYWGQGTQVTVSS | low polyreactivity
31 | QVQLVESRGGLVQAGGSLRLSCAASGFTFDIYAMGWYRQAPGKERELVAAINYSGARTYYADSVKGRFTISRDNAKNTVYLQMNSLNPEDTAVYYCNRAARIKYDYWGQGTQVTVSS | high polyreactivity
32 | QVQLVESGGGLVQAGGSLRLICAASGLTFFRNAMGWYRQAPGKEREFVAGITSTDGSTYYADSVKGRFTISRDNAKNTVYLQMNSLKPEDTAVYYCAAAYRVRGRTYDSWGQGTQVTVSS | high polyreactivity

— the nanobody polyreactivity screen of Harvey et al. (2022)
